Target: melanocortin-1 (MC1) receptor on B16/F1 murine melanoma cells (mouse (B16/F1 murine melanoma cells)) (UniProt Q01727)
Test: cell-based or functional assay

Chain of melanocortin-1 (MC1) receptor on B16/F1 murine melanoma cells (mouse (B16/F1 murine melanoma cells)) (Q01727 whole entry): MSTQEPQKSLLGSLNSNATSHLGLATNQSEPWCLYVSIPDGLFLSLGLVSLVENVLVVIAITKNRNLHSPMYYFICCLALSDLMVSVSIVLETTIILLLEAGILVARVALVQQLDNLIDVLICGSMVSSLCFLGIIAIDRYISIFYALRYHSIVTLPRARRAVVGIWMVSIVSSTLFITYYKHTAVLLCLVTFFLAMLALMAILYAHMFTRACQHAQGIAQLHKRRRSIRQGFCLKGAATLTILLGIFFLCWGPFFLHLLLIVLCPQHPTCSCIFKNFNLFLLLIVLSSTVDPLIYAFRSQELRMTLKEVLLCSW

tumor uptake in B16/F1 melanoma-bearing C57 mice at 2 h blocked by co-injection of non-radioactive NDP-MSH [%] | tumor uptake in B16/F1 melanoma-bearing C57 mice blocked by 10 µg (6.07 nmol) of non-radiolabeled NDP-MSH [%] | Substance
95.6 |  | 111In-DOTA-GENle-CycMSHhex (peptide)
 | 98 | 111In-DOTA-GGNle-CycMSHhex (peptide)
